Assay results reported in US20180250358A1, “GHRH AGONISTS FOR THE TREATMENT OF ISCHEMIC DISORDERS” (published 2018).
Non-standard residues stand in square brackets, D forms with d. No end group written: not given here. *: point of attachment. Phe(F5) = N[C@@H](Cc1c(F)c(F)c(F)c(F)c1F)C(=O)O; Desaminotyrosyl = O=C(CCc1ccc(O)cc1)*; NMeY = CN[C@@H](Cc1ccc(O)cc1)C(=O)O; Agmatine = N=C(N)NCCCCN*; NMeA = CN[C@@H](C)C(=O)O; Nle = CCCC[C@H](N)C(=O)O; Orn = NCCC[C@H](N)C(=O)O; Abu = CC[C@H](N)C(=O)O; Aoc = NCCCCCCCC(=O)O; Ava = NCCCCC(=O)O; GABA = NCCCC(=O)O

B1: P-21301 [N-Me-Tyr^1, Orn^12, Abu^15, Orn^21, Nle^27, Asp^28, Amc^30]hGHRH(1-30)NH2 (peptide)
peptide: [NMeY]ADAIFTNSYR[Orn]VL[Abu]QLSAR[Orn]LLQDI[Nle]DR[Aoc]-NH2
modifications: N-terminus assumed
SMILES: CCCC[C@H](NC(=O)[C@@H](NC(=O)[C@H](CC(=O)O)NC(=O)[C@H](CCC(N)=O)NC(=O)[C@H](CC(C)C)NC(=O)[C@H](CC(C)C)NC(=O)[C@H](CCCN)NC(=O)[C@H](CCCNC(=N)N)NC(=O)[C@H](C)NC(=O)[C@H](CO)NC(=O)[C@H](CC(C)C)NC(=O)[C@H](CCC(N)=O)NC(=O)[C@H](CC)NC(=O)[C@H](CC(C)C)NC(=O)[C@@H](NC(=O)[C@H](CCCN)NC(=O)[C@H](CCCNC(=N)N)NC(=O)[C@H](Cc1ccc(O)cc1)NC(=O)[C@H](CO)NC(=O)[C@H](CC(N)=O)NC(=O)[C@@H](NC(=O)[C@H](Cc1ccccc1)NC(=O)[C@@H](NC(=O)[C@H](C)NC(=O)[C@H](CC(=O)O)NC(=O)[C@H](C)NC(=O)[C@H](Cc1ccc(O)cc1)NC)[C@@H](C)CC)[C@@H](C)O)C(C)C)[C@@H](C)CC)C(=O)N[C@@H](CC(=O)O)C(=O)N[C@@H](CCCNC(=N)N)C(=O)NCCCCCCCC(N)=O
B2: P-25503 [N-Me-Tyr^1, Abu^2, Orn^12, Abu^15, Orn^21, Nle^27, Gab^30]hGHRH(1-30)NH2 (peptide)
peptide: YADAIFTNSYRKVLGQLSARKLLQDIMSRQ
modifications: N-Me-Tyr^1; Abu^2; Orn^12; Abu^15; Orn^21; Nle^27; Gab^30 (in place of Gln^30); C-terminal -NH2
B3: P-27414 [N-Me-Tyr^1, D-Ala^2, Fpa5^6, Orn^12, Abu^15, Orn^21, Nle^27, Gab^30]hGHRH(1-30)NH-CH3 (peptide)
peptide: B2 peptide
modifications: N-Me-Tyr^1; D-Ala^2; Fpa5^6; Orn^12; Abu^15; Orn^21; Nle^27; Gab^30 (in place of Gln^30); C-terminal -NH-CH3
B4: P-27415 [N-Me-Tyr^1, Orn^12, Abu^15, Orn^21, Nle^27, Gab^30]hGHRH(1-30)NH-CH3 (peptide)
peptide: B2 peptide
modifications: N-Me-Tyr^1; Orn^12; Abu^15; Orn^21; Nle^27; Gab^30 (in place of Gln^30); C-terminal -NH-CH3
B5: P-21300 [Dat^1, D-Ala^2, Orn^12, Abu^15, Orn^21, Nle^27, Asp^28, Amc^30]hGHRH(1-30)NH2 (peptide)
peptide: [Desaminotyrosyl][dA]DAIFTNSYR[Orn]VL[Abu]QLSAR[Orn]LLQDI[Nle]DR[Aoc]-NH2
SMILES: CCCC[C@H](NC(=O)[C@@H](NC(=O)[C@H](CC(=O)O)NC(=O)[C@H](CCC(N)=O)NC(=O)[C@H](CC(C)C)NC(=O)[C@H](CC(C)C)NC(=O)[C@H](CCCN)NC(=O)[C@H](CCCNC(=N)N)NC(=O)[C@H](C)NC(=O)[C@H](CO)NC(=O)[C@H](CC(C)C)NC(=O)[C@H](CCC(N)=O)NC(=O)[C@H](CC)NC(=O)[C@H](CC(C)C)NC(=O)[C@@H](NC(=O)[C@H](CCCN)NC(=O)[C@H](CCCNC(=N)N)NC(=O)[C@H](Cc1ccc(O)cc1)NC(=O)[C@H](CO)NC(=O)[C@H](CC(N)=O)NC(=O)[C@@H](NC(=O)[C@H](Cc1ccccc1)NC(=O)[C@@H](NC(=O)[C@H](C)NC(=O)[C@H](CC(=O)O)NC(=O)[C@@H](C)NC(=O)CCc1ccc(O)cc1)[C@@H](C)CC)[C@@H](C)O)C(C)C)[C@@H](C)CC)C(=O)N[C@@H](CC(=O)O)C(=O)N[C@@H](CCCNC(=N)N)C(=O)NCCCCCCCC(N)=O
B6: P-25501 [N-Me-Tyr^1, D-Ala^2, Orn^12, Abu^15, Orn^21, Nle^27, Gab^30]hGHRH(1-30)NH2 (peptide)
peptide: B2 peptide
modifications: N-Me-Tyr^1; D-Ala^2; Orn^12; Abu^15; Orn^21; Nle^27; Gab^30 (in place of Gln^30); C-terminal -NH2
B7: P-27413 [Dat^1, Gln^8, His^11, Orn^12, Abu^15, His^20, Orn^21, Nle^27, Asp^28]hGHRH(1-29)NH-CH3 (peptide)
peptide: [Desaminotyrosyl]ADAIFTQSYH[Orn]VL[Abu]QLSAH[Orn]LLQDI[Nle]DR-NHMe
SMILES: CCCC[C@H](NC(=O)[C@@H](NC(=O)[C@H](CC(=O)O)NC(=O)[C@H](CCC(N)=O)NC(=O)[C@H](CC(C)C)NC(=O)[C@H](CC(C)C)NC(=O)[C@H](CCCN)NC(=O)[C@H](Cc1c[nH]cn1)NC(=O)[C@H](C)NC(=O)[C@H](CO)NC(=O)[C@H](CC(C)C)NC(=O)[C@H](CCC(N)=O)NC(=O)[C@H](CC)NC(=O)[C@H](CC(C)C)NC(=O)[C@@H](NC(=O)[C@H](CCCN)NC(=O)[C@H](Cc1c[nH]cn1)NC(=O)[C@H](Cc1ccc(O)cc1)NC(=O)[C@H](CO)NC(=O)[C@H](CCC(N)=O)NC(=O)[C@@H](NC(=O)[C@H](Cc1ccccc1)NC(=O)[C@@H](NC(=O)[C@H](C)NC(=O)[C@H](CC(=O)O)NC(=O)[C@H](C)NC(=O)CCc1ccc(O)cc1)[C@@H](C)CC)[C@@H](C)O)C(C)C)[C@@H](C)CC)C(=O)N[C@@H](CC(=O)O)C(=O)N[C@@H](CCCNC(=N)N)C(=O)NC
B8: P-21303 [N-Me-Tyr^1, D-Ala^2, Orn^12, Abu^15, Orn^21, Nle^27, Asp^28, Amc^30]hGHRH(1-30)NH2 (peptide)
peptide: [NMeY][dA]DAIFTNSYR[Orn]VL[Abu]QLSAR[Orn]LLQDI[Nle]DR[Aoc]-NH2
modifications: N-terminus assumed
SMILES: CCCC[C@H](NC(=O)[C@@H](NC(=O)[C@H](CC(=O)O)NC(=O)[C@H](CCC(N)=O)NC(=O)[C@H](CC(C)C)NC(=O)[C@H](CC(C)C)NC(=O)[C@H](CCCN)NC(=O)[C@H](CCCNC(=N)N)NC(=O)[C@H](C)NC(=O)[C@H](CO)NC(=O)[C@H](CC(C)C)NC(=O)[C@H](CCC(N)=O)NC(=O)[C@H](CC)NC(=O)[C@H](CC(C)C)NC(=O)[C@@H](NC(=O)[C@H](CCCN)NC(=O)[C@H](CCCNC(=N)N)NC(=O)[C@H](Cc1ccc(O)cc1)NC(=O)[C@H](CO)NC(=O)[C@H](CC(N)=O)NC(=O)[C@@H](NC(=O)[C@H](Cc1ccccc1)NC(=O)[C@@H](NC(=O)[C@H](C)NC(=O)[C@H](CC(=O)O)NC(=O)[C@@H](C)NC(=O)[C@H](Cc1ccc(O)cc1)NC)[C@@H](C)CC)[C@@H](C)O)C(C)C)[C@@H](C)CC)C(=O)N[C@@H](CC(=O)O)C(=O)N[C@@H](CCCNC(=N)N)C(=O)NCCCCCCCC(N)=O
B9: P-20357 [Dat^1, D-Ala^2, N-Me-Ala^8, Orn^12, Abu^15, Orn^21, Nle^27, Asp^28, Agm^29]hGHRH(1-29)NH2 (peptide)
peptide: [Desaminotyrosyl][dA]DAIFT[NMeA]SYR[Orn]VL[Abu]QLSAR[Orn]LLQDI[Nle]D[Agmatine]
SMILES: CCCC[C@H](NC(=O)[C@@H](NC(=O)[C@H](CC(=O)O)NC(=O)[C@H](CCC(N)=O)NC(=O)[C@H](CC(C)C)NC(=O)[C@H](CC(C)C)NC(=O)[C@H](CCCN)NC(=O)[C@H](CCCNC(=N)N)NC(=O)[C@H](C)NC(=O)[C@H](CO)NC(=O)[C@H](CC(C)C)NC(=O)[C@H](CCC(N)=O)NC(=O)[C@H](CC)NC(=O)[C@H](CC(C)C)NC(=O)[C@@H](NC(=O)[C@H](CCCN)NC(=O)[C@H](CCCNC(=N)N)NC(=O)[C@H](Cc1ccc(O)cc1)NC(=O)[C@H](CO)NC(=O)[C@H](C)N(C)C(=O)[C@@H](NC(=O)[C@H](Cc1ccccc1)NC(=O)[C@@H](NC(=O)[C@H](C)NC(=O)[C@H](CC(=O)O)NC(=O)[C@@H](C)NC(=O)CCc1ccc(O)cc1)[C@@H](C)CC)[C@@H](C)O)C(C)C)[C@@H](C)CC)C(=O)N[C@@H](CC(=O)O)C(=O)NCCCCNC(=N)N
B10: P-22325 [N-Me-Tyr^1, Gln^8, Orn^12, Abu^15, Orn^21, Nle^27, Asp^28, Apa^30]hGHRH(1-30)NH2 (peptide)
peptide: [NMeY]ADAIFTQSYR[Orn]VL[Abu]QLSAR[Orn]LLQDI[Nle]DR[Ava]-NH2
modifications: N-terminus assumed
SMILES: CCCC[C@H](NC(=O)[C@@H](NC(=O)[C@H](CC(=O)O)NC(=O)[C@H](CCC(N)=O)NC(=O)[C@H](CC(C)C)NC(=O)[C@H](CC(C)C)NC(=O)[C@H](CCCN)NC(=O)[C@H](CCCNC(=N)N)NC(=O)[C@H](C)NC(=O)[C@H](CO)NC(=O)[C@H](CC(C)C)NC(=O)[C@H](CCC(N)=O)NC(=O)[C@H](CC)NC(=O)[C@H](CC(C)C)NC(=O)[C@@H](NC(=O)[C@H](CCCN)NC(=O)[C@H](CCCNC(=N)N)NC(=O)[C@H](Cc1ccc(O)cc1)NC(=O)[C@H](CO)NC(=O)[C@H](CCC(N)=O)NC(=O)[C@@H](NC(=O)[C@H](Cc1ccccc1)NC(=O)[C@@H](NC(=O)[C@H](C)NC(=O)[C@H](CC(=O)O)NC(=O)[C@H](C)NC(=O)[C@H](Cc1ccc(O)cc1)NC)[C@@H](C)CC)[C@@H](C)O)C(C)C)[C@@H](C)CC)C(=O)N[C@@H](CC(=O)O)C(=O)N[C@@H](CCCNC(=N)N)C(=O)NCCCCC(N)=O
B11: P-20359 [N-Me-Tyr^1, D-Ala^2, Fpa5^6, Orn^12, Abu^15, Orn^21, Nle^27, Asp^28, Agm^29]hGHRH(1-29)NH2 (peptide)
peptide: [NMeY][dA]DAI[Phe(F5)]TNSYR[Orn]VL[Abu]QLSAR[Orn]LLQDI[Nle]D[Agmatine]
B12: P-29703 [N-Me-Tyr^1, Gln^8, Orn^12, Abu^15, Orn^21, Nle^27, Gln-Gab^30]hGHRH(1-30)NH2 (peptide)
peptide: [NMeY]ADAIFTQSYR[Orn]VL[Abu]QLSAR[Orn]LLQDI[Nle]SRQ-{GABA-NH2}
B13: P-27400 [Dat^1, D-Ala^2, Orn^12, Abu^15, Orn^21, Nle^27, Asp^28]hGHRH(1-29)NH-CH3 (peptide)
peptide: [Desaminotyrosyl][dA]DAIFTNSYR[Orn]VL[Abu]QLSAR[Orn]LLQDI[Nle]DR-NHMe
SMILES: CCCC[C@H](NC(=O)[C@@H](NC(=O)[C@H](CC(=O)O)NC(=O)[C@H](CCC(N)=O)NC(=O)[C@H](CC(C)C)NC(=O)[C@H](CC(C)C)NC(=O)[C@H](CCCN)NC(=O)[C@H](CCCNC(=N)N)NC(=O)[C@H](C)NC(=O)[C@H](CO)NC(=O)[C@H](CC(C)C)NC(=O)[C@H](CCC(N)=O)NC(=O)[C@H](CC)NC(=O)[C@H](CC(C)C)NC(=O)[C@@H](NC(=O)[C@H](CCCN)NC(=O)[C@H](CCCNC(=N)N)NC(=O)[C@H](Cc1ccc(O)cc1)NC(=O)[C@H](CO)NC(=O)[C@H](CC(N)=O)NC(=O)[C@@H](NC(=O)[C@H](Cc1ccccc1)NC(=O)[C@@H](NC(=O)[C@H](C)NC(=O)[C@H](CC(=O)O)NC(=O)[C@@H](C)NC(=O)CCc1ccc(O)cc1)[C@@H](C)CC)[C@@H](C)O)C(C)C)[C@@H](C)CC)C(=O)N[C@@H](CC(=O)O)C(=O)N[C@@H](CCCNC(=N)N)C(=O)NC

Target: T1, GHRH receptor of human pituitary membranes (human, UniProt Q02643)
T1 sequence: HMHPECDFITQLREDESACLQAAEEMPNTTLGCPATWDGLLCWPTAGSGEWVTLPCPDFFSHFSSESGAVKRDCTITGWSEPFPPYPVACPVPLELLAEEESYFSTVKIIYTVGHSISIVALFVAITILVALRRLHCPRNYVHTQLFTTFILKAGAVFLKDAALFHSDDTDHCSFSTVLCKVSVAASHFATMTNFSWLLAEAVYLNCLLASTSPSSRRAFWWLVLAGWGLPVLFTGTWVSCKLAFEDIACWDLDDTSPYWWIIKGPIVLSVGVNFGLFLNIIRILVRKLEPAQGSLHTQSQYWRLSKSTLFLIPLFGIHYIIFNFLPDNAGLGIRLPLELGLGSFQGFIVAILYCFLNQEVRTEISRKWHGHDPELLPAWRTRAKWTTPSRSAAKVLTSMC
Test: competition vs 125I-JV-1-42, human pituitary membranes;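 note: pituitaries used were normal human glands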
Excerpt: Normal human pituitaries were purchased from the National Hormone and Peptide Program (A.F. Parlow, Los Angeles, County Harbor-UCLA Medical Center, Torrance, Calif.).

Binder	IC50 [nM]	relative affinity (binding potency) vs JI-38 [vs JI-38=1]
B1	2.99	1.45
B2	1.18	3.67
B3	1.56	2.79
B4	3.02	1.44
B5	3.61	1.2
B6	1.07	4.07
B7	2.45	1.78
B8	1.87	2.32
B9	0.86	5.06
B10	3.8	1.14
B11	3.05	1.43
B12	1.22	3.57
B13	3.35	1.3
